Test [1] concerns the target Recombinant FcγRIIIa (F158) with C-terminus Biotin (human) (UniProt P08637).
Test [2] concerns the target Recombinant FcγRIIa (H131) with C-terminus Biotin (human) (UniProt P12318).
The target in test [3] is Recombinant FcγRIIIa (V158) with C-terminus Biotin (human).
Target sequence in this assay (P08637 17-208 F176V): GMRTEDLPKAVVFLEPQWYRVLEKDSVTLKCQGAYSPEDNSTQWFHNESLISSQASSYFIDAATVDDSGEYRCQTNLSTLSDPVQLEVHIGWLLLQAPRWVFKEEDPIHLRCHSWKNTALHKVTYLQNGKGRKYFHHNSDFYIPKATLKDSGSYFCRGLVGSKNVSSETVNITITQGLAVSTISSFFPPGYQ
The target in test [4] is Recombinant FcγRIIb with C-terminus Biotin (human) (UniProt P31994).
Test [5] addresses Recombinant FcγRIIa (R131) with C-terminus Biotin (human) (UniProt P12318).
Test [6] has as its target Recombinant FcγRIIa (H131) with C-terminus Biotin (human) (UniProt P12318). The source holds these as a separate data set.
In test [7] the target is Recombinant FcγRI with C-terminus Biotin (human) (UniProt P12314).
Chain of Recombinant FcγRI with C-terminus Biotin (human) (P12314 16-292): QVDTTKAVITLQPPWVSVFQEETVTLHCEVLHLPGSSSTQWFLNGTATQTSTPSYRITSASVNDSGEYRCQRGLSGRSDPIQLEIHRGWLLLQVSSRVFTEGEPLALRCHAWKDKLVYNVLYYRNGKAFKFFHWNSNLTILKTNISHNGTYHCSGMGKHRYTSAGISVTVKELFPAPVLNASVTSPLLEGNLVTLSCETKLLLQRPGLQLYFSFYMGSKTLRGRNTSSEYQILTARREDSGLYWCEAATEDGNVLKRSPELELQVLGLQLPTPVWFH
In test [8] the target is Recombinant FcγRIIa (R131) with C-terminus Biotin (human) (UniProt P12318). This is another data set of the same source.
Chain of Recombinant FcγRIIa (R131) with C-terminus Biotin (human) (UniProt P12318) (P12318 34-217 H167R): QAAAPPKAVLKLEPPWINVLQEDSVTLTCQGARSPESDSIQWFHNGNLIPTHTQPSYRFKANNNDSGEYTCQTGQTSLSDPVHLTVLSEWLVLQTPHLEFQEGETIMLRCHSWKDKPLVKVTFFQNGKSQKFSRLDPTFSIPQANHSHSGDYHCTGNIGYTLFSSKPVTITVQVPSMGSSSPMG
The target in test [9] is Recombinant FcγRIIb with C-terminus Biotin (human) (UniProt P31994). Briefly: other; qualitative only.
The target of test [10] is Recombinant FcγRIIa (R131) with C-terminus Biotin (human) (UniProt P12318). This is another data set of the same source.
Test [11] deals with Recombinant FcγRIIIa (V158) with C-terminus Biotin (human). The source holds these as a separate data set.
Target sequence in this assay (P08637 17-208 F176V): as the sequence (P08637 17-208 F176V) above
For test [12], the target named is Recombinant FcγRI with C-terminus Biotin (human) (UniProt P12314). The source holds these as a separate data set.
Test [13] deals with Recombinant FcγRIIa (H131) with C-terminus Biotin (human) (UniProt P12318). The source holds these as a separate data set.
Chain of Recombinant FcγRIIa (H131) with C-terminus Biotin (human) (P12318 34-217): as the sequence (P12318 34-217 H167R) above, with R134H counted along it
For test [14], the target named is Recombinant FcγRIIIa (F158) with C-terminus Biotin (human) (UniProt P08637). Briefly: split reporter (BiFC, NanoBiT); homogeneous competition assay in solution for FcγRIIa and FcγRIIIa variants: sample competes with IgG-LgBiT tracer for FcγR-Biotin mixed 1:1 with Streptavidin-SmBiT; 30–60 min; PBS with 10% superblock; IC50 equivalent to apparent affinity (KD).
Chain of Recombinant FcγRIIIa (F158) with C-terminus Biotin (human) (P08637 17-208): as the sequence (P08637 17-208 F176V) above, with V160F counted along it
In test [15] the target is Recombinant FcγRIIIa (V158) with C-terminus Biotin (human). The description is as above.
Test [16] has as its target Recombinant FcγRIIa (R131) with C-terminus Biotin (human). The test is described as above.
Test [17] deals with Recombinant FcγRIIa (H131) with C-terminus Biotin (human) (UniProt P12318). Described as above.

Results on four substances are retold here after publication PMC9287719.

Where two headings read alike, the source gives them in different places.

Chain of Human IgG4 (P01861 whole entry, looked up): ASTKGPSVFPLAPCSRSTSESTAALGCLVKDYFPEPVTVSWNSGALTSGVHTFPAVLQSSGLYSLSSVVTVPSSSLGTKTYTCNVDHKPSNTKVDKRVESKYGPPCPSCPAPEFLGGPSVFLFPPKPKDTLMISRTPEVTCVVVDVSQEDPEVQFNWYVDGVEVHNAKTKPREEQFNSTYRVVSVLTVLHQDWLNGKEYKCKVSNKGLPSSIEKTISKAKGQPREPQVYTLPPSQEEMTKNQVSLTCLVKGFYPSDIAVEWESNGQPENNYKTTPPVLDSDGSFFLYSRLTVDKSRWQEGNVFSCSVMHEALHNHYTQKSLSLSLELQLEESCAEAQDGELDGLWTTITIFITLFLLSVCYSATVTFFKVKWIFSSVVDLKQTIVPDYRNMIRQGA
Chain of Human IgG2 (P01859 whole entry, looked up): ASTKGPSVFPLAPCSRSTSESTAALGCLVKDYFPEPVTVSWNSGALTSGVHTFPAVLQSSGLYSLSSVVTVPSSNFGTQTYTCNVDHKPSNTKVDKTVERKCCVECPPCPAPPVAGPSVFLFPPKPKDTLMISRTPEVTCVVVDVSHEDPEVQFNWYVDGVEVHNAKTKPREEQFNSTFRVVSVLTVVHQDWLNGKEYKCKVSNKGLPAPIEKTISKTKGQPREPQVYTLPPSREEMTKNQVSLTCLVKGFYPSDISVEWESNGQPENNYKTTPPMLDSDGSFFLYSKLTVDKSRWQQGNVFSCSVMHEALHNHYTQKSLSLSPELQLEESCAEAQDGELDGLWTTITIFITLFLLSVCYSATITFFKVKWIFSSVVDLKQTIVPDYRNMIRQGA
Chain of Recombinant FcγRIIb with C-terminus Biotin (human) (P31994 43-217): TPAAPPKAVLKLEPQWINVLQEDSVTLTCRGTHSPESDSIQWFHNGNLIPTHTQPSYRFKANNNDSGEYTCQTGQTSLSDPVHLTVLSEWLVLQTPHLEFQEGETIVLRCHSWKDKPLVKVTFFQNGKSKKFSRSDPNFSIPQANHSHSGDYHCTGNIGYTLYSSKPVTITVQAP

The IC50 is the concentration that gives 50% inhibition. Gammagard (from UniProt P01857): the IC50 in test [1] was determined as 95.5 nM; in [2], 55.8 nM; in [3], 12.5 nM; in [4], 1120 nM; in [5], 178 nM.

As for Human IgG4 (from UniProt P01861), the 50% inhibitory concentration (IC50) came out at 102 nM in [6], 1.07 nM in [7], 128 nM in [8] and 573 nM in test [9].

Take Human IgG2 (from UniProt P01859): the IC50 was 519 nM in [10], 2040 nM in test [11], 29.4 nM in test [12] and 77.1 nM in test [13].

In the case of “Human IgG (human polyclonal IgG) (antibody)”, the concentration for half-maximal inhibition (IC50) in test [14] is 107 nM; in test [15], 18.4 nM; in test [16], 42.6 nM; in test [17] it was 11.3 nM.
